Experimental data reported in patent US20210147566A1.

Biological target: human transferrin receptor (TFR) on Raji cells (human) (UniProt P02786)
Experiment: FACS on Raji cells, secondary antibody without IgG1 clone [CONTINUED]

human transferrin receptor (TFR) on Raji cells (human), sequence (P02786 whole entry): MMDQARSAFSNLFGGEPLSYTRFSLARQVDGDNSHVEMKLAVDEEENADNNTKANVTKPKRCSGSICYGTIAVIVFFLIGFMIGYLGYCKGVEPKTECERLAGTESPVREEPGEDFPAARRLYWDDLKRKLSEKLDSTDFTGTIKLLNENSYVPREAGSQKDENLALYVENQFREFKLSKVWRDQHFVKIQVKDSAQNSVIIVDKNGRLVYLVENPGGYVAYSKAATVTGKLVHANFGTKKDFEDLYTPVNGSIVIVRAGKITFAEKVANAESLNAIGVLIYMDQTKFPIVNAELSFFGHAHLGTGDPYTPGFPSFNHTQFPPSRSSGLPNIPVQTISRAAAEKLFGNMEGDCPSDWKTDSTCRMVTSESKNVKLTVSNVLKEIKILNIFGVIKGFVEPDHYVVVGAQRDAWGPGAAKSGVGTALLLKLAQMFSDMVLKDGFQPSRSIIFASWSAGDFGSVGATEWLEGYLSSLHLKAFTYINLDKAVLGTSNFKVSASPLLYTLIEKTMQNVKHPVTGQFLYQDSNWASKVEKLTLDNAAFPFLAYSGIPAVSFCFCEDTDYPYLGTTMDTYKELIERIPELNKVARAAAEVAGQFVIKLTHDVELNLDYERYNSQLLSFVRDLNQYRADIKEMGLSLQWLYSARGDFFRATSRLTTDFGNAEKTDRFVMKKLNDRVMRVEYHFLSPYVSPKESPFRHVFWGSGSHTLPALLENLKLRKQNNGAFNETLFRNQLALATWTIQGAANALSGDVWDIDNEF

TFR gate, percent of cells: 19.1
Substance: ANTI-FAB ALEXA FLUOR 647 (antibody)
